Laboratory results from patent publication US20110256088A1 (MIT, published 2011).
Bridge positions count the residues as written; N and C are the ends. Ends that are not written are not given here. * marks the point of attachment. Myristoyl = CCCCCCCCCCCCCC(=O)*

T1: p32 or gC1q receptor (human, UniProt Q07021 74-282)
T1 construct: whole, on cells; Endogenous protein on cell lines; also called p32 receptor; cell surface p32
T1 sequence (looked up): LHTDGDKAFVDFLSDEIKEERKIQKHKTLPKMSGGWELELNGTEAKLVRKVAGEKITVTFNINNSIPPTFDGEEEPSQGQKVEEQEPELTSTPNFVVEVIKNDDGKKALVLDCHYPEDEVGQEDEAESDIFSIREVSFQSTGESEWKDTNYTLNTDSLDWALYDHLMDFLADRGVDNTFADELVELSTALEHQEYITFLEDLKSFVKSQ

B1: TP-ARAL tandem peptide (peptide)
peptide: Myristoyl-GWTLNSAGYLLGKINLKALAALAKKILGGGGARALPSQRSR
modifications: also: TAMRA label, place not given here
notes: also called untargeted tandem peptide; control peptide (TP-ARAL)
B2: free LyP-1 peptide (peptide)
peptide: CGNKRTRGC
modifications: disulfide 1-9 (inferred)
notes: also called unlabeled LyP-1 peptide

Key:
[1] = molecular target: T1, p32 or gC1q receptor; assay: TAMRA-labeled tandem peptide incubated on MDA-MB-435 cells with p32 shRNA or control shRNA
[2] = molecular target: T1, p32 or gC1q receptor; assay: free LyP-1 (5 to 20 µM) as competitor on HeLa cells, read out as GFP silencing
Experimental: For the initial screen, HeLa cells stably expressing destabilized GFP were cultured in 96-well plates to ˜70-80% confluence. siRNA (0-100 nM) was incubated with 20-fold molar excess of tetramethylrhodamine-labelled tandem peptides in PBS for 10-15 min at room temperature, then incubated over cells in DMEM for 4 h at 37° C., after which the medium was replaced. The complexes were then added to HeLa cell cultures and incubated for 4 h at 37° C., after which the medium was replaced with 100 μL of fresh medium with 10% serum.

Row | Binder | binding result [1] | binding result [2]
1 | B1 | no binding | –
2 | B2 | – | binds
